Reference: US20240343803A1 (SHANDONG SIMCERE BIOPHARMACEUTICAL, published 2024)
Where two headings read alike, the source gives them in different places.

T1: Full-length human TIGIT on CHO-K1 cells (CHO-K1 human TIGIT) (human, UniProt Q495A1 22-244)
T1 construct: NCBI XP_024309156.1; the entry includes the signal peptide (limits not recoverable); The strain (high, medium, low) is named under assay; also called high expression strain 1D2; medium expression strain 2D10
T1 sequence: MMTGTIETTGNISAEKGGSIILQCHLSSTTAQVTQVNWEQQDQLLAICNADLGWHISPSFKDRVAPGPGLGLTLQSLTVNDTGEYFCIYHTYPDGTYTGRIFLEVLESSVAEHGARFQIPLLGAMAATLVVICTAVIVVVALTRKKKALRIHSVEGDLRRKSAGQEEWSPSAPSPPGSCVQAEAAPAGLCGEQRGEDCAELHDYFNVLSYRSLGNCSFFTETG

T2: Fusion protein of extracellular domain of human TIGIT and His-tag (human TIGIT ECD-his) (human)
T2 chain: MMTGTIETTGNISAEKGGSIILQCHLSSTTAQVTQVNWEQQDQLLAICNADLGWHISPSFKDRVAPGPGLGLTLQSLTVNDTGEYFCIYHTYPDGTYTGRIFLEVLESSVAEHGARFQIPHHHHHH

T3: Fusion protein of extracellular domain of human TIGIT and mouse IgG2a Fc fragment (human TIGIT ECD-mFc) (human)
T3 construct: The entry includes the signal peptide (limits not recoverable) and the mouse IgG2a Fc
T3 chain: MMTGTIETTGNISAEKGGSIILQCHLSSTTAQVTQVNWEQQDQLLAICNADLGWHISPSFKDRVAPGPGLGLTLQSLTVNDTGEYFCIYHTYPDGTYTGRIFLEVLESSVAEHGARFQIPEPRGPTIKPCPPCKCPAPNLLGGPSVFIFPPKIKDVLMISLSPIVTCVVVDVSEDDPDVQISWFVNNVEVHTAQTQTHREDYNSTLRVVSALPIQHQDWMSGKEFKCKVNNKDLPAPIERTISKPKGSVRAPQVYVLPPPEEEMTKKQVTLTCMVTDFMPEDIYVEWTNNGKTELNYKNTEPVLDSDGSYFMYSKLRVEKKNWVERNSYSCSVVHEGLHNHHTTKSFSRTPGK

T4: TIGIT on human PBMCs stimulated by SEA (human, UniProt Q495A1 22-244)
T4 construct: whole, on cells
T4 sequence (looked up): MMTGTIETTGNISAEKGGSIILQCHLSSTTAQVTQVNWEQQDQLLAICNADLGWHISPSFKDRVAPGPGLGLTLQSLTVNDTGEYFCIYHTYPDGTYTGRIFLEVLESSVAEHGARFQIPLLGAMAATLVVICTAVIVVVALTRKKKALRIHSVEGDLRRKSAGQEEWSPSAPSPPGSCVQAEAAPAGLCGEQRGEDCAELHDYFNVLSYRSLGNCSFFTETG


What was measured:
[1] = target: T1, Full-length human TIGIT on CHO-K1 cells …; assay: cell binding, CHO-K1 human TIGIT high expression strain
Summary of the method: (§1)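 Binding was measured by flow cytometry after a 60-minute, 4° C incubation of the antibodies with 2×10⁵ CHO-K1 cells displaying full-length human or cynomolgus monkey TIGIT. Antibody titration: 12 points, threefold serial dilution from 80 nM, in 1% BSA-PBS.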

[2] = target: T5, Fusion protein of extracellular domain of cynomolgus monkey TIGIT and mouse IgG2a Fc fragment (cynomolgus … (cynomolgus monkey)); assay: ELISA, cynomolgus monkey TIGIT ECD-mFc
T5 construct: The entry includes the signal peptide (limits not recoverable) and the mouse IgG2a Fc
Summary of the method: (§2)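 Plates blocked with 5% skim milk-PBS at 37° C for 2-4 h. Test antibodies applied as a 12-point 3-fold series from 13 nM for 1.5-2 h at 37° C. Read-out: HRP secondary (1:5000, 1 h, 37° C), TMB colour for 7-10 min at room temperature, acid stop, absorbance at OD450 nm.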
Target sequence in this assay (chain, as listed by the source limits assumed): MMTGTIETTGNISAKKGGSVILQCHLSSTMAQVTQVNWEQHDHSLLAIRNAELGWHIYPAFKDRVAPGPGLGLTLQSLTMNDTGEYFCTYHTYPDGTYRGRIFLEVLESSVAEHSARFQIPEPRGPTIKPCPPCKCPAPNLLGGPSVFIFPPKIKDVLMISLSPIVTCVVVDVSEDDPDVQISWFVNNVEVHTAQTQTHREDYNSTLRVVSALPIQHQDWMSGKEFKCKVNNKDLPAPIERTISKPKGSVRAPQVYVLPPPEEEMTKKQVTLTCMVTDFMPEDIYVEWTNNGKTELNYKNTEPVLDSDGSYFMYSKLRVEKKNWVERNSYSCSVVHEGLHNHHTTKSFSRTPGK

[3] = target: T6, Fusion protein of extracellular domain of human TIGIT and human IgG1 Fc fragment (human TIGIT ECD-hFc) (human); assay: blocking of TIGIT ECD-hFc binding to CHO-K1 CD155 cells
T6 construct: The entry includes the signal peptide (limits not recoverable) and the human IgG1 Fc
T6 sequence (chain, as listed by the source limits assumed): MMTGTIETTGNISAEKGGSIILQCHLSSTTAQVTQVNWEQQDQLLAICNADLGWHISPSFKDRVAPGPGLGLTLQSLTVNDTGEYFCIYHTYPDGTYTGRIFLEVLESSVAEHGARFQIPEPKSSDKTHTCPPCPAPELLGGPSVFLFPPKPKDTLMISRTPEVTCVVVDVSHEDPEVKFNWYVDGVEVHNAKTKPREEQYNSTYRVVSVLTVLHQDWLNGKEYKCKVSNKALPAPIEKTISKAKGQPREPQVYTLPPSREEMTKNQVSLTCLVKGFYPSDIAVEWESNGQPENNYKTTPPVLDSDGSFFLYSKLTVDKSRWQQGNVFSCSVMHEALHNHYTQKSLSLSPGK
Summary of the method: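 The inhibition curves from which IC50 was calculated were generated by cell-based ELISA. Fixed CHO-K1 CD155 cells, blocked with 5% skim milk-PBS, were incubated at 37° C for 1.5-2 h with antibodies that had been premixed for 0.5 h with human TIGIT ECD-hFc at a working concentration of 30 ng/mL. Detection of bound TIGIT used HRP secondary antibody at 1:5000 for 1 h at 37° C, followed by TMB and reading as OD450 nm.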

[4] = target: T7, Full-length cynomolgus monkey TIGIT on CHO-K1 cells (CHO-K1 cynomolgus monkey TIGIT) (cynomolgus monkey); assay: cell binding, CHO-K1 cynomolgus monkey TIGIT
T7 construct: NCBI XP_015300911.1
T7 sequence (chain, as listed by the source limits assumed): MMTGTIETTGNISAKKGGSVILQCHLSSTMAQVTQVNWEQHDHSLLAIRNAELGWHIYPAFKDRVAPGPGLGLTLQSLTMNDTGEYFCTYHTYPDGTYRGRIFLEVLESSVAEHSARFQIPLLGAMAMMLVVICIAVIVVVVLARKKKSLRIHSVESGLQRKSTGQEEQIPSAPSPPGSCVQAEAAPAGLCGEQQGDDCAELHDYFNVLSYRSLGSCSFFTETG
Summary of the method: as §1

[5] = target: T2, Fusion protein of extracellular domain …; assay: BIAcore
[6] = target: T2, Fusion protein of extracellular domain …; assay: BIAcore; KD ratio to TIGIT-CHI-002
[7] = target: T3, Fusion protein of extracellular domain …; assay: ELISA, human TIGIT ECD-mFc
Summary of the method: as §2

[8] = target: T2, Fusion protein of extracellular domain …; assay: BIAcore; reference itself
[9] = target: T1, Full-length human TIGIT on CHO-K1 cells …; assay: FACS; CHO-K1 human TIGIT high expression strain
Summary of the method: (§3)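 The EC50 was derived from binding curves obtained by flow cytometry on CHO-K1 cells expressing full-length TIGIT of human or cynomolgus monkey origin. Cells (2×10⁵/50 μL, 1% BSA-PBS) were mixed 1:1 with a 12-point, 3-fold antibody dilution series that began at 80 nM before mixing, then incubated for 60 min at 4° C.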

[10] = target: T3, Fusion protein of extracellular domain …; assay: FACS; blocking of TIGIT ECD-mFc binding to CHO-K1 CD155 cells
[11] = target: T1, Full-length human TIGIT on CHO-K1 cells …; assay: FACS; CHO-K1 human TIGIT medium expression strain
Summary of the method: as §3

[12] = target: T2, Fusion protein of extracellular domain …; assay: BIAcore
[13] = target: T1, Full-length human TIGIT on CHO-K1 cells …; assay: FACS; CHO-K1 human TIGIT low expression strain
Summary of the method: as §3

[14] = target: T3, Fusion protein of extracellular domain …; assay: FACS; blocking of TIGIT ECD-mFc binding to CHO-K1 CD112 cells
Description: The collected CHO-K1 CD112 cells were washed once with PBS (Hyclone, CAT #SH30256) and resuspended to 2×10⁵/40 μL with 1% BSA-PBS. The anti-TIGIT humanized antibodies were diluted to 600 nM with 1% BSA-PBS (diluted by 2.5-fold serial dilution for 12 concentration points). The TIGIT ECD-mFc was diluted with 1% BSA-PBS to 6 μg/mL. The 40 μL cells were then mixed with 40 μL diluted antibodies and 40 μL diluted TIGIT ECD-mFc, and then incubated at 4° C. for 60 minutes. […] The cell samples were washed twice with PBS, resuspended to 100 μL/well with 1% BSA-PBS and then analyzed by flow cytometry (BD, Canto II). […] (f) The binding activity of anti-TIGIT humanized antibodies to human PBMCs detected by FACS.

[15] = target: T4, TIGIT on human PBMCs stimulated by SEA; assay: FACS; binding to SEA-stimulated human PBMC
Description: The fresh human PBMCs (AllCells, PB004-C) were adjusted to a density of 5×10⁵/mL, added with SEA (Toxin Technology, Inc., CAT: AT101) to 100 ng/ml, and cultured at 37° C. with 5% CO₂ for 3 days. The cells were collected 3 days later, washed once with PBS (Hyclone, CAT #SH30256), added with Fc Block (BD, 564220) and then incubated at 4° C. for 10 minutes. After washing twice with PBS, the PBMCs were resuspended to 2×10⁵/50 μL with 1% BSA-PBS. The humanized antibodies were diluted to 80 nM with 1% BSA-PBS (diluted by 3-fold serial dilution for 12 concentration points). The 50 μL cells were then mixed with 50 μL diluted antibodies, and then incubated at 4° C. for 60 minutes. […] After washing twice with PBS, the cell samples were resuspended with 1% BSA-PBS, 100 μL/well and then analyzed by flow cytometry (BD, Canto II).

[16] = target: T5, Fusion protein of extracellular domain …; assay: ELISA, cynomolgus monkey TIGIT ECD-mFc; remark: listed apart in the source
[17] = target: T7, Full-length cynomolgus monkey TIGIT on …; assay: FACS; CHO-K1 cynomolgus monkey TIGIT
Summary of the method: as §3

[18] = target: T1, Full-length human TIGIT on CHO-K1 cells …; assay: FACS; blocking of Bio-CD155-His binding to CHO-K1 human TIGIT cells
Summary of the method: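 IC50 values in this blocking assay come from inhibition curves. CHO-K1 human TIGIT cells (2×10⁵/40 μL in 1% BSA-PBS) were combined with equal volumes of antibody, a 12-point 3-fold dilution series starting at 210 nM, and biotinylated CD155-His, diluted to 3 μg/mL, for 60 min at 4° C. Ligand binding was detected with APC-streptavidin (1:1700, 40 min, 4° C) and read by flow cytometry on a BD Canto II.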

[19] = target: T3, Fusion protein of extracellular domain …; assay: ELISA, human TIGIT ECD-mFc

Binder	EC50 [1]	EC50 [2]	IC50 [3]	EC50 [4]	Kd [5]	koff [5]	kon [5]	Fold change vs chimeric antibodies (KD) [6]	EC50 [7]	other results
TIGIT-002-H2L3 (antibody, V domains shown, Humanized anti-TIGIT antibody) VH: EVQLQESGPGLVKPSETLSLTCAVSGYSITSDSWNWIRQPPGKKLEWIGYISYSGNTYYNPSLKSRVTISRDTSKNQFSLKLSSVTAADTAVYYCARLDFSNYGGAVDYWGQGTTVTVSS VL: DIVMTQSPDSLAVSLGERATINCKASQNVRTAVAWYQQKPGQSPKLMIYSASYRYTGVPDRFSGSGSGTDFTLTISSLQAEDVAVYYCQQYYTTPWTFGGGTKVEIK	0.0278 nM	0.0337 nM	0.54 nM	0.15 nM	0.266 nM	0.00107 s⁻¹	4.03e+06 M⁻¹ s⁻¹	6.3 fold	0.0159 nM	–
TIGIT-002-H1L3 (antibody, V domains shown, Humanized anti-TIGIT antibody) VH: EVQLQESGPGLVKPSETLSLTCAVSGYSITSDSWNWIRQPPGKGLEWIGYISYSGNTYYNPSLKSRVTISRDTSKNQFSLKLSSVTAADTAVYYCARLDFSNYGGAVDYWGQGTTVTVSS VL: DIVMTQSPDSLAVSLGERATINCKASQNVRTAVAWYQQKPGQSPKLMIYSASYRYTGVPDRFSGSGSGTDFTLTISSLQAEDVAVYYCQQYYTTPWTFGGGTKVEIK	0.0253 nM	0.0511 nM	0.395 nM	0.143 nM	0.271 nM	0.000973 s⁻¹	3.59e+06 M⁻¹ s⁻¹	6.44 fold	0.0157 nM	–
TIGIT-002-H3L3 (antibody, V domains shown, Humanized anti-TIGIT antibody) VH: EVQLQESGPGLVKPSETLSLTCAVSGYSITSDSWNWIRQPPGKKLEWMGYISYSGNTYYNPSLKSRITISRDTSKNQFSLKLSSVTAADTAVYYCARLDFSNYGGAVDYWGQGTTVTVSS VL: DIVMTQSPDSLAVSLGERATINCKASQNVRTAVAWYQQKPGQSPKLMIYSASYRYTGVPDRFSGSGSGTDFTLTISSLQAEDVAVYYCQQYYTTPWTFGGGTKVEIK	0.0361 nM	0.022 nM	0.339 nM	0.0919 nM	0.188 nM	0.000852 s⁻¹	4.52e+06 M⁻¹ s⁻¹	4.47 fold	0.0173 nM	–
TIGIT-CHI-002 (antibody, V domains shown, Human-mouse chimeric antibody) VH: EVQLQESGPGLAKPSQTLSLACSVTGYSITSDSWNWIRKFPGNKLEYMGYISYSGNTYYNPSLKSRISITRDTSKNQFYLQLNSVTTEDTATYYCARLDFSNYGGAVDYWGQGTSVTVSS VL: DIVMTQSHTFMSTSVGDRVSITCKASQNVRTAVAWYQQKPGQSPKLMIYSASYRYTGVPDRFTGSGSGTDFTFTISSVQAEDLAVYYCQQYYTTPWTFGGGAKLEIQ	0.0218 nM	0.02 nM	0.564 nM	0.0372 nM	0.0421 nM	0.0003 s⁻¹	7.13e+06 M⁻¹ s⁻¹	–	0.0161 nM	Fold change vs chimeric antibodies (KD) [8]: 1 fold
RG6058-hIgG1 (antibody, V domains shown, Control anti-TIGIT antibody, human IgG1; also called Roche RG6058) VH: EVQLQQSGPGLVKPSQTLSLTCAISGDSVSSNSAAWNWIRQSPSRGLEWLGKTYYRFKWYSDYAVSVKGRITINPDTSKNQFSLQLNSVTPEDTAVFYCTRESTTYDLLAGPFDYWGQGTLVTVSS VL: not shown	–	–	–	–	–	–	–	–	–	EC50 [9]: 0.794 nM; IC50 [10]: 0.584 nM; EC50 [11]: 0.652 nM; Kd [12]: 0.156 nM; koff [12]: 0.000135 s⁻¹; kon [12]: 866000 M⁻¹ s⁻¹; EC50 [13]: 0.481 nM; IC50 [14]: 6 nM; EC50 [15]: 0.285 nM; EC50 [16]: 0.0486 nM; EC50 [17]: 2.29 nM; IC50 [18]: 0.334 nM; EC50 [19]: 0.0393 nM
